Data: patent US6593108B1 (priority 1999, dated 2003)
“And” between values parts separate entries of the source, which are not always exact repeats. Equal entries are not always repeated. One block for each molecule: values may come before it. Where a SMILES comes first, the peptide text is derived from it. Bridges are numbered along the chain shown (N, C = ends). Where no end group is shown, it is not given here.

Legend:
HG67 = molecular target: T1, HG67 (Homo sapiens, UniProt Q969V1); test: Intracellular calcium ([Ca2+]i) measurement with fura-2 in HEK293T cells transiently expressing HG67; format: cell-based; details: HEK293T cells transiently expressing HG67, fura-2; read-out: EC50 of increase in intracellular calcium levels
T1 construct: expressed in transfected cells; host or cells: HEK-293T, transient
T1 sequence (Q969V1 whole entry): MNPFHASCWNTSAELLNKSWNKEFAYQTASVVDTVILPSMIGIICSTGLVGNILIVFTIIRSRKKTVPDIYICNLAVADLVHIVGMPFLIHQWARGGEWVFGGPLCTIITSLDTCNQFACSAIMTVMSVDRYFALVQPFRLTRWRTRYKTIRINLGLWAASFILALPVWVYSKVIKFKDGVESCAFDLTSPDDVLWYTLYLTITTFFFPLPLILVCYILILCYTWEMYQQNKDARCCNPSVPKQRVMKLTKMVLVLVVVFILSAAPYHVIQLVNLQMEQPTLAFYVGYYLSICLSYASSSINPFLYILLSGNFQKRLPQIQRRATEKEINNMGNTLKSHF
Description: (§1) The entire coding sequence of human HG67 was cloned into BamHI -NotI site of pEF1/V5-HisB plasmid vector (Invitrogen, Carlsbad, Calif.). The resultant construct was transfected into HEK-293T cells using Effectene (Qiagen, Hilden, Germany) or LipofectAmine PLUS (Life Technologies) according to the manufacture's instructions. Human embryonic kidney cells constitutively expressing SV40 large T antigen (HEK-293T) were maintained in D-MEM/F-12 medium (Life Technologies, Rockville, Md.) supplemented with 10% fetal bovine serum, 100 units/ml penicillin-G and 100 μg/ml streptomycin at 37° C. with 5% CO2 in a humidified atmosphere.
(§2) The intracellular calcium ion concentration ([Ca^2+]i) was measured fluorometrically using a Ca^2+-sensitive fluorescent dye, fura-2. HEK293T cells transiently transfected with pEF1/V5-HisB plasmid vector harboring HG67 cDNA were harvested by phosphate-buffered saline containing 2 mM EDTA 48 hours after transfection, and washed once with the assay buffer (Hanks' balanced salt solution, 10 mM HEPES, 0.1% BSA, pH 7.4). The cells were suspended with the buffer containing 2 μM fura-2 acetoxymethylester (Dojin, Kumamoto, Japan) into the cell density of 1.0×10^7 cells/ml and incubated at 37° C. for 60 minutes with gently shaking. The fura-2-loaded cells were washed twice with the buffer and re-suspended with the buffer to 1.0×10^6 cells/ml. […]

non-transfected cells = test: Intracellular calcium ([Ca2+]i) measurement with fura-2 in non-transfected cells; format: cell-based, human; details: data not shown
Description: as §1, §2

MCH-R1 [1] = molecular target: T2, MCH-R1 (Homo sapiens, UniProt Q99705); test: SPA, displacement of [125I]Phe13Tyr19-MCH from MCH-R1 membranes
MCH-R1 [2] = molecular target: T2, MCH-R1; test: cell-based or functional assay
[3] = molecular target: HG67 (melanin-concentrating hormone receptor 2) (human) (UniProt Q969V1); test: cell-based or functional assay
HG67 (melanin-concentrating hormone receptor 2) (human), sequence (Q969V1 whole entry): as above

[4] = molecular target: HG67 (melanin-concentrating hormone receptor 2) (human) (UniProt Q969V1); test: SPA, displacement of [125I]Phe13Tyr19-MCH from MCH-R2 membranes
MCH-R1 [5] = molecular target: T2, MCH-R1; test: SPA, CHO/MCH-R1 membranes, nonspecific defined with 500 nM unlabeled MCH
[6] = molecular target: HG67 (melanin-concentrating hormone receptor 2) (human) (UniProt Q969V1); test: SPA, COS or CHO MCH-R2 membranes, nonspecific defined with 500 nM unlabeled MCH
mock transfected cells = test: [125I]-MCH binding to mock transfected HEK293T cells; set-up: species or system human
MCH-R1 [7] = molecular target: T2, MCH-R1; test: Pertussis toxin effect on MCH-R1 signaling; format: cell-based; details: dose dependent
Description: MCH-R2 appears to activate Gαq. […] Intracellular calcium mobilization through MCH-R2 was not affected by different concentrations of pertussis toxin (PTX), while MCH-R1 signaling was reduced in a dose dependent manner to about 50%. The results of incomplete PTX-inhibition of MCH-R1 signaling is in contrast to Lembo, et al., 1999. […] (Tadayyon, et al., 2000. 275(2), 709-712).

MCH-R1 [8] = molecular target: T2, MCH-R1; details: Lembo, et al., 1999; cited from earlier work
[9] = molecular target: T3, HG67 (melanin-concentrating hormone receptor 2) (human, UniProt Q969V1 1-340); test: cell-based or functional assay
T3 sequence (Q969V1 whole entry): as above

[10] = molecular target: T3, HG67 (melanin-concentrating hormone …); test: cell-based or functional assay; remark: listed apart in the source
[11] = molecular target: T3, HG67 (melanin-concentrating hormone …); test: SPA, displacement of [125I]Phe13Tyr19-MCH from MCH-R2 membranes
Description: (§3) SPA was carried out using wheat-germ agglutinin-polyvinyltoluene beads (Amersham Corp., Arlington Heights, Ill.), in 96-well OptiPlates (Packard, Meriden, Conn.). Each well contained 0.25 mg of SPA beads, 1–10 μg of membrane protein, and 200 μl of binding buffer.
(§4) After equilibrating at room temperature for 3 hours, the plates were read in a TopCount (Packard, Meriden, Conn.). IC$50$ calculations were performed using Prism 3.0 (GraphPad Software, San Diego, Calif.).

MCH-R1 [12] = molecular target: T4, MCH-R1 (Homo sapiens (Human), UniProt Q99705 1-353); test: SPA, displacement of [125I]Phe13Tyr19-MCH from MCH-R1 membranes
T4 construct: also called MCH-1R; CHO/MCH-R1
T4 sequence (Q99705 whole entry, form in doubt): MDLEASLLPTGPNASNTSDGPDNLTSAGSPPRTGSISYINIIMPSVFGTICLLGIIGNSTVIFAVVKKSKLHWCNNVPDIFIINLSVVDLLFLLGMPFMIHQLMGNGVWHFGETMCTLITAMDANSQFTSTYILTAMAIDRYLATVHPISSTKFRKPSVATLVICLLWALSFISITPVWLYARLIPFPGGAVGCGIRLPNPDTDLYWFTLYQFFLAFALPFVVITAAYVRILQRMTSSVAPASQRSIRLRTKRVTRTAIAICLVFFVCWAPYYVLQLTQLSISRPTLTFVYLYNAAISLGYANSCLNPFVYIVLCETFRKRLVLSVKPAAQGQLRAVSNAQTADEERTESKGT
Description: as §3, §4

MCH-R1 [13] = molecular target: T4, MCH-R1; test: cell-based or functional assay

IC50 (MCH-R1 [1]): 0.2 nM | Function (EC50) (MCH-R1 [2]): 119 nM | Function (EC50) [3]: 90.5 nM | IC50 [4]: 437 nM
Molecule: Salmon MCH (peptide)

specific binding window (MCH-R1 [5]): 6 x | specific binding window [6]: 3 x
Molecule: [125I]Phe^13Tyr^19-MCH (from UniProt P20382 147-165) (peptide)

increase in intracellular calcium levels (fura-2), EC50 [3]: 0.078 nM
Molecule: [Phe^13, Leu^19]-MCH (from UniProt P20382 147-165) (peptide)

Function (EC50) [9]: 44.1 nM | IP turnover, EC50 [10]: 2.8 nM | aequorin assay in HEK293/aeq17/Galpha15 cells, EC50 [10]: 26 nM | increase in intracellular calcium levels (fura-2), EC50 [10]: 0.02 nM | IC50 [11]: 1.5 nM
B1: human melanin-concentrating hormone (MCH) (peptide, UniProt P20382 147-165, looked up)
peptide: DFDMLRCMLGRVYRPCWQV
modifications: ends and bridges not checked; cysteine pairing not given here
notes: mature; Both are treated as one molecule; the mature 19-mer is its C-terminal part; also called Human MCH; cold MCH

The next lines start with the molecule.

Molecule: CSCC[C@@H]1NC(=O)[C@@H](NC(=O)[C@H](CCCNC(=N)N)NC(=O)[C@H](CC(C)C)NC(=O)[C@H](CCSC)NC(=O)[C@H](CC(=O)O)NC(=O)[C@H](Cc2ccccc2)NC(=O)[C@@H](N)CC(=O)O)CSSC[C@@H](C(=O)N[C@@H](Cc2c[nH]c3ccccc23)C(=O)N[C@@H](CCC(N)=O)C(=O)N[C@@H](CC(C)C)C(=O)O)NC(=O)[C@@H]2CCCN2C(=O)[C@H](CCCNC(=N)N)NC(=O)[C@H](Cc2ccccc2)NC(=O)[C@H](C(C)C)NC(=O)[C@H](CCCNC(=N)N)NC(=O)CNC(=O)[C@H](CC(C)C)NC1=O [[Phe^13, Leu^19]-MCH] (H-DFDMLRCMLGRVFRPCWQL-OH; disulfide 7-16 (inferred); N-terminus and C-terminus assumed)
EC50 (HG67): 0.078 nM | [Ca2+]i increase in the non-transfected cells (non-transfected cells): failed to induce detectable [Ca^2+]i increase

Molecule: Melanin-concentrating hormone [MCH]
[Ca2+]i increase in the non-transfected cells (non-transfected cells): failed to induce detectable [Ca^2+]i increase

Molecule: [^125I]-MCH: radioiodinated MCH, NEN Life Science Products
Specific binding to mock transfected cells (mock transfected cells; in words): any specific binding was not observed | Nonspecific binding (1 μM MCH) (mock transfected cells; mock transfected HEK293T cells, [125I]-MCH 100 pM plus 1 μM cold MCH, two values per cell): 352.2 Cpm and 326.6 Cpm | Total binding (DMSO) (mock transfected cells; mock transfected HEK293T cells, [125I]-MCH 100 pM, two values per cell): 516.4 Cpm and 392.5 Cpm

Molecule: pertussis toxin
MCH-R1 signaling remaining after PTX (reduced to) (MCH-R1 [7]): about 50% | PTX inhibition of MCH-1R signaling (MCH-R1 [8]): complete PTX inhibition

Molecule: DFDMLRCMLGRVFRPCWQY [(Phe^13Tyr^19)-MCH]
IC50 (MCH-R1 [12]): 0.3 nM | Function (EC50) [9]: 65.5 nM | Function (EC50) (MCH-R1 [13]): 83.1 nM | IC50 [11]: 0.8 nM
